B1: eGFP-GGSG-Flag-RBM20-WT [human] / Transportin-3 [human (endogenous in HeLa)] (parent complex)
chain 1: MVLAAAMSQDADPSGPEQPDRVACSVPGARASPAPSGPRGMQQPPPPPQPPPPPQAGLPQIIQNAAKLLDKNPFSVSNPNPLLPSPASLQLAQLQAQLTLHRLKLAQTAVTNNTAAATVLNQVLSKVAMSQPLFNQLRHPSVITGPHGHAGVPQHAAAIPSTRFPSNAIAFSPPSQTRGPGPSMNLPNQPPSAMVMHPFTGVMPQTPGQPAVILGIGKTGPAPATAGFYEYGKASSGQTYGPETDGQPGFLPSSASTSGSVTYEGHYSHTGQDGQAAFSKDFYGPNSQGSHVASGFPAEQAGGLKSEVGPLLQGTNSQWESPHGFSGQSKPDLTAGPMWPPPHNQPYELYDPEEPTSDRTPPSFGGRLNNSKQGFIGAGRRAKEDQALLSVRPLQAHELNDFHGVAPLHLPHICSICDKKVFDLKDWELHVKGKLHAQKCLVFSENAGIRCILGSAEGTLCASPNSTAVYNPAGNEDYASNLGTSYVPIPARSFTQSSPTFPLASVGTTFAQRKGAGRVVHICNLPEGSCTENDVINLGLPFGKVTNYILMKSTNQAFLEMAYTEAAQAMVQYYQEKSAVINGEKLLIRMSKRYKELQLKKPGKAVAAIIQDIHSQRERDMFREADRYGPERPRSRSPVSRSLSPRSHTPSFTSCSSSHSPPGPSRADWGNGRDSWEHSPYARREEERDPAPWRDNGDDKRDRMDPWAHDRKHHPRQLDKAELDERPEGGRPHREKYPRSGSPNLPHSVSSYKSREDGYYRKEPKAKSDKYLKQQQDAPGRSRRKDEARLRESRHPHPDDSGKEDGLGPKVTRAPEGAKAKQNEKNKTKRTDRDQEGADDRKENTMAENEAGKEEQEGMEESPQSVGRQEKEAEFSDPENTRTKKEQDWESESEAEGESWYPTNMEELVTVDEVGEEEDFIVEPDIPELEEIVPIDQKDKICPETCLCVTTTLDLDLAQDFPKEGVKAVGNGAAEISLKSPRELPSASTSCPSDMDVEMPGLNLDAERKPAESETGLSLEDSDCYEKEAKGVESSDVHPAPTVQQMSSPKPAEERARQPSPFVDDCKTRGTPEDGACEGSPLEEKASPPIETDLQNQACQEVLTPENSRYVEMKSLEVRSPEYTEVELKQPLSLPSWEPEDVFSELSIPLGVEFVVPRTGFYCKLCGLFYTSEETAKMSHCRSAVHYRNLQKYLSQLAEEGLKETEGADSPRPEDSGIVPRFERKKL
chain 2: MEGAKPTLQLVYQAVQALYHDPDPSGKERASFWLGELQRSVHAWEISDQLLQIRQDVESCYFAAQTMKMKIQTSFYELPTDSHASLRDSLLTHIQNLKDLSPVIVTQLALAIADLALQMPSWKGCVQTLVEKYSNDVTSLPFLLEILTVLPEEVHSRSLRIGANRRTEIIEDLAFYSSTVVSLLMTCVEKAGTDEKMLMKVFRCLGSWFNLGVLDSNFMANNKLLALLFEVLQQDKTSSNLHEAASDCVCSALYAIENVETNLPLAMQLFQGVLTLETAYHMAVAREDLDKVLNYCRIFTELCETFLEKIVCTPGQGLGDLRTLELLLICAGHPQYEVVEISFNFWYRLGEHLYKTNDEVIHGIFKAYIQRLLHALARHCQLEPDHEGVPEETDDFGEFRMRVSDLVKDLIFLIGSMECFAQLYSTLKEGNPPWEVTEAVLFIMAAIAKSVDPENNPTLVEVLEGVVRLPETVHTAVRYTSIELVGEMSEVVDRNPQFLDPVLGYLMKGLCEKPLASAAAKAIHNICSVCRDHMAQHFNGLLEIARSLDSFLLSPEAAVGLLKGTALVLARLPLDKITECLSELCSVQVMALKKLLSQEPSNGISSDPTVFLDRLAVIFRHTNPIVENGQTHPCQKVIQEIWPVLSETLNKHRADNRIVERCCRCLRFAVRCVGKGSAALLQPLVTQMVNVYHVHQHSCFLYLGSILVDEYGMEEGCRQGLLDMLQALCIPTFQLLEQQNGLQNHPDTVDDLFRLATRFIQRSPVTLLRSQVVIPILQWAIASTTLDHRDANCSVMRFLRDLIHTGVANDHEEDFELRKELIGQVMNQLGQQLVSQLLHTCCFCLPPYTLPDVAEVLWEIMQVDRPTFCRWLENSLKGLPKETTVGAVTVTHKQLTDFHKQVTSAEECKQVCWALRDFTRLFR

The variants in one assay derive from B1. As to the kind of experiment: co-immunoprecipitation, mass spectrometry; cytoplasmic fractions, HeLa; normalized to Neg; n = 3; parent: 1.7; read off a plot.
For chain 1 R634Q, the screen value is around 0.9.

Regarding chain 1 R634Q, chain 1 S635E, chain 1 S637E, the screen value is around 0.3.

As for chain 1 P633L, the screen value was around 1.5.

A further assay covers variants of B1. The assay can be described thus: co-immunoprecipitation, western blot quantification; HeLa cells expressing eGFP-RBM20, cytoplasmic fraction; n = 3; parent: 3.3; read off a plot.
For the variant chain 1 R634Q, the response is around 1.6 relative HRP signal.

As for chain 1 R634Q, chain 1 S635E, chain 1 S637E, the response was around 1.2 relative HRP signal.

Take chain 1 P633L: the response is around 2.4 relative HRP signal.

Source of the values: paper PMC10353998 (2023).
